Data on 20 molecules can be found in patent US20240270826A1 (NATIONAL RESEARCH COUNCIL OF CANADA, published 2024).

The target of assay [1] is Human SARS-CoV-2_Wuhan S (SmT1) (SARS-CoV-2 (Wuhan), UniProt P0DTC2 14-1208). Nature of the assay: tandem SPR, immobilized S, orientation 1: VHH alone.
For assay [2], the target named is T1, SARS-CoV-2 S on CHO-S cells (SARS-CoV-2, UniProt P0DTC2 14-1273).
T1 construct: whole, on cells
Nature of the assay: flow cytometry, CHO-S cells.

For assay [3], the target named is T2, SARS-CoV-2 S2 (aa686-1208) (Wuhan) (SARS-CoV-2 Wuhan, UniProt P0DTC2 686-1208).
T2 construct: NRC; FLAG, 6xHis tags
Nature of the assay: ELISA. (In an ELISA, binding on a coated surface is turned into a signal by an enzyme label.)

Assay [4] concerns the target SARS-CoV-2 S1-NTD (aa16-305) (SARS-CoV-2 Wuhan, UniProt P0DTC2 16-305). Nature of the assay: ELISA.

B1: NRCoV2-10 VHH (VHH)
VHH: QLQLQESGGGLVQPGGSLTLSCAASGNTFSRSNMHWYRQAPGAQREWVAAISSRGISTYAYSAKGRFTISRDNAKNTVSLQMNSLKPEDTAVYYCYAADDLGDYWGQGTQVTVSS
Regarding B1, the “End 1st inj (RU)” value in assay [1] amounted to 9.6 RU.

B2: NRCoV2-04 VHH (VHH)
VHH: AVQLVDSGGGLVQPGGSLRLSCAASGSPFSNVVMAWYRQAPGKQRERVAFISGGGIADYIMSVKGRFTISRDNAKNTVYLQMNSLKPEDTAVYYCWSSYESTWGQGTQVTVSS
Consider B2, for which, in assay [1], the “End 1st inj (RU)” value was 41.4 RU.

B3: NRCoV2-SR13 VHH (VHH)
VHH: EVQLVESGGGLVTTGGSLRLSCATSGSRFGSKHMAWYRQAPGKQRDLVAAISSGGSTHYGSSVKGRFTISRDNAKSTVYLQMNSLNPEDTAVFYCNMGGWDYRSNTYIPGSRSDYWGQGTQVTVSS
As for B3, the “End 1st inj (RU)” value in assay [1] amounted to 36.9 RU.

B4: NRCoV2-14 VHH (VHH)
VHH: EVQLVSSGGGLVQAGGSLRLSCEASGTTFSHYAVGWYRQAPGKQREWVASISVFGSTTYGGSVAGRFTISRDNDKNTVDLQMNSLKPEDTAVYYCHAVNADIGGDYWGQGTQVTVSS
In the case of B4, in assay [1], the “End 1st inj (RU)” value stood at 26.9 RU.

B5: NRCoV2-SR02 VHH-Fc (Fc fusion)
chain: EVQLVDSGGGLVQAGGSLRLSCTASEFTLNYYSIGWFRQSPGKEREGVSCIRYSGGGIDYADSVKGRFTISRDNAKNTVYLTMNSLKPEDTAVYYCAADRLYSRACPTAGGRNYWGQGTQVTVSS
notes: bivalent VHH-Fc
In assay [2], B5 registered a Bmax of 14400 and an EC50 of 1.2 nM. Further, the binding result in assay [3] was “no binding (tested: 13 nM)”.

B6: NRCoV2-15 VHH (VHH)
VHH: EVQLVSSGGGLVEAGGSLRLSCIASGSTSGRNTMGWFRQAPGKQREWVAIVSTSGATNYAGSVKGRFTLSRDNAKNAVYLQMNNLKPEDTAVYYCYAAYGGGGDYWGQGTQVTVSS
In the case of B6, the “End 1st inj (RU)” value in assay [1] came to 10.1 RU.

B7: NRCoV2-06 VHH (VHH)
VHH: EVQLVQSGGGLVQAGESLRLSCAASVSTFSSYAMGWYRQAPGKQRELVASIGFVGATYYIDSVKGRFTISRDNAKKTAYLQMNDLKPDDTAVYYCNARHYGGSEYWGQGTQVTVSS
With B7, the “End 1st inj (RU)” value in assay [1] was 38.5 RU.

B8: NRCoV2-MRed04 VHH-Fc (Fc fusion)
chain: EVQLVESGGGLVQPGRSLRLSCAASGNSFSISTMGWFRQAPGKERELVASIWSDTTTSYADSVKGRFTISTDNTRTKVYLQMSSLNPEDTAVYYCAADRGFVVRGQYDYWGQGTQVTVSS
notes: bivalent VHH-Fc
In assay [2], B8 came in with a Bmax of 14900 and a concentration for a half-maximal effect (EC50) of 4.2 nM. In assay [3], the binding result is on record as “no binding (tested: 13 nM)”. In addition, the binding result in assay [4] is on record as “no binding (tested: 13 nM)”.

B9: NRCoV2-17 VHH (VHH)
VHH: EVQLQQSGGGLVQTGGSLRLSCAAAGSPFSQLAMSWYRQISGKERAWVASISPTGNRSYSKIAKGRFTISRDNAKNTVTLQMTSLKPEDTAAYICQAANVNGGDYWGQGTQVTVSS
With B9, the “End 1st inj (RU)” value in assay [1] stood at 16.7 RU.

B10: NRCoV2-03 VHH (VHH)
VHH: EVQLVSSGGGLVQAGGSLRLSCTASGITFSYYAMGWYRQAPGQPRELVASMSNMDSTIYADSVKGRFTISRDNAKTTIYLQMNNLKPEDTAVYFCNIYGPTYSTRRNEYWGQGTQVTVSS
In the case of B10, in assay [1], the “End 1st inj (RU)” value stood at 18.1 RU.

B11: NRCoV2-18 VHH-Fc (Fc fusion)
chain: EVQLVESGGGLVQAGGSLRLSCVASGITISGYNMAWWRQTRGKQTERVAFINSGGSTTYSDSVKGRFTISRDNGKNTAYLQMNSLNAEDTADYFCSLHTSHDYWGQGTQVTVSS
notes: bivalent VHH-Fc
On to B11, for which, in assay [2], the Bmax is 18300 and the midpoint of the response, the EC50, lay at 0.9 nM. Besides, in assay [3], the binding result is “no binding (tested: 13 nM)”. Besides, the binding result in assay [4] was “no binding (tested: 13 nM)”.

B12: NRCoV2-18 VHH (VHH)
VHH: EVQLVESGGGLVQAGGSLRLSCVASGITISGYNMAWWRQTRGKQTERVAFINSGGSTTYSDSVKGRFTISRDNGKNTAYLQMNSLNAEDTADYFCSLHTSHDYWGQGTQVTVSS
On to B12, for which, in assay [1], the “End 1st inj (RU)” value came out at 12.6 RU.

B13: NRCoV2-1d VHH-Fc (Fc fusion)
chain: EVQLVESGGGSVQPGGSLRLSCAASGSTLDYYAIGWFRQAPGKEREWVSSVSSSDGNTLYADSVKGRFTISRDNAKNTVYLQMNSLKAEDTAVYVCAADYSMRPFAVGRWHRDYEYWGQGTQVTVSS
notes: bivalent VHH-Fc
Take B13: in assay [2], the Bmax came out at 13800 and the response was half-maximal at 1.1 nM (EC50). Also, the binding result in assay [3] is “no binding (tested: 13 nM)”. In addition, the binding result in assay [4] is on record as “no binding (tested: 13 nM)”.

B14: NRCoV2-1d VHH (VHH)
VHH: EVQLVESGGGSVQPGGSLRLSCAASGSTLDYYAIGWFRQAPGKEREWVSSVSSSDGNTLYADSVKGRFTISRDNAKNTVYLQMNSLKAEDTAVYVCAADYSMRPFAVGRWHRDYEYWGQGTQVTVSS
As to B14, in assay [1], the “End 1st inj (RU)” value amounted to 26.3 RU.

B15: NRCoV2-SR16 VHH (VHH)
VHH: QVQLVQSAGGLVQAGGSLRLSCVVSGTTFSRYHMGWHRQAPGKQRDFVAGISTSGAVTYADSAKGRFTISRDNAKNTVYLEMNSLKLEDTALYYCNTGGWDYRSSTFIMGLNWGQGTQVTVSS
With B15, in assay [1], the “End 1st inj (RU)” value worked out at 37.4 RU.

B16: NRCoV2-07 VHH-Fc (Fc fusion)
chain: QVQLVQSGGGLVQPGGSLRLSCAASGVTLDYYAIGWFRQAPGKEREAVSCISSNGRRNHYVASVRGRFTISRDNAKSTVYLQMNSLKPEDTAVYYCAAVQDVHGDNYYCTSPNEYNVWGQGTQVTVSS
notes: bivalent VHH-Fc
On to B16, for which the Bmax in assay [2] was found to be 10600. For the same molecule, a half-maximal effect in assay [2] (EC50) was put at 1.1 nM. The binding result in assay [3] and in assay [4] was “no binding (tested: 13 nM)” each time.

B17: NRCoV2-20 VHH-Fc (Fc fusion)
chain: EVQLQQSGGGLVQPGGSLRLSCAASGRTFSNYVVGWFRQAPQAPGKDHEFVAVISGSDTETYYADSVKGRFTISRDNAKNTVYLQMNSLKPEDTAVYYCAADRGMSYYYTRATEYYYWGQGTQVTVSS
notes: bivalent VHH-Fc
In assay [2], B17 came in with a Bmax of 12100 and an EC50 of 0.7 nM. Besides, the binding result in assay [3] was “no binding (tested: 13 nM)”. For the same molecule, the binding result in assay [4] was “no binding (tested: 13 nM)”.

B18: NRCoV2-11 VHH-Fc (Fc fusion)
chain: EVQLVSSGGGLVQPGGSLRLSCAASGSSLDSYSVSWFRQAPGKEREWISFISRYYSSTYYTDSVKGRFTTSRDGDQKTVHLQMNSLKPEDTAVYYCAARSRDFSSPFSATDTYTSWGQGTQVTVSS
notes: bivalent VHH-Fc
Consider B18, for which, in assay [2], the Bmax came out at 18200 and a half-maximal effect (EC50) was put at 4.3 nM. The binding result in assay [3] was “no binding (tested: 13 nM)”. Besides, the binding result in assay [4] is listed as “no binding (tested: 13 nM)”.

B19: NRCoV2-11 VHH (VHH)
VHH: EVQLVSSGGGLVQPGGSLRLSCAASGSSLDSYSVSWFRQAPGKEREWISFISRYYSSTYYTDSVKGRFTTSRDGDQKTVHLQMNSLKPEDTAVYYCAARSRDFSSPFSATDTYTSWGQGTQVTVSS
Regarding B19, the “End 1st inj (RU)” value in assay [1] amounted to 21.8 RU.

B20: NRCoV2-05 VHH (VHH)
VHH: EVKLVQSGGGLVQPGGSLRLSCAASGFIFSNYAMNWVRQAPGKGLEWVSGINSGGGDTRYADSVKGRFTVSRDNAKNTLYLQMNSLKPEDTGVYYCSKGPVSSYYGSGYDYRGQGTQVTVSS
For the molecule B20, in assay [1], the “End 1st inj (RU)” value came out at 36.9 RU.

By EC50 is commonly meant the midpoint of the concentration-response curve. Low values mean an effect from little substance, high ones a need for much substance.
